Laboratory results as given in patent US11969458B2, “Formula of neuregulin preparation” (Zensun (Shanghai) Science & Technology, Co., Ltd., priority 2014, dated 2024).

How the values were obtained:
[1] = Narrow pH stability study of rhNRG-1 (pH 2.3 to 4.3) by RP-HPLC with Arrhenius shelf life prediction; type: physicochemical
Protocol: In a plastic tube, add the API and DI-water. Mix into a solution containing 0.25 mg/mL rhNRG-1, 4 mM phosphate (from the API) and 0.1M NaCl (from the API). Adjust pH down using a diluted HCl. Once the first target is reached, transfer about 8 mL into a separate plastic tube and continue the titration to hit the next target and collect about 8 mL at each target (i.e. 4.29, 3.90, 3.78, 3.47, 3.36, 3.17, 3.02, 2.85, 2.58, 2.37 and 2.33). For each pH, transfer into glass vials for total 5 vials each level. Place one vial each at 2-8, 25, 40, 50 and 60° C. […]
For 40° C., remove 200 μL and test by HPLC after 0, 5.7, 7 and 11 days
Construct a narrow range pH-rate (stability) profile at each temperature.
Derive an Arrhenius equation and predict shelf life at 5° C.
Using the 40, 50 and 60° C. data for each pH (2.3 to 3.9), an Arrhenius plot was used to predict the shelf life at 5° C. for each pH level. The T90 values calculated from the Arrhenius plots are provided as follows (Table 11): […]

[2] = Forced degradation study of rhNRG-1 (oxidation with H2O2), RP-HPLC; type: physicochemical; settings: for rhNRG-1 conc.: 0.06% H2O2, RT
Protocol: The API solution was forced to degrade as follow (Table 12):
The samples collected at time point was analyzed by the RP-HPLC.

[3] = pH 2.37, predicted shelf life at 5° C. from Arrhenius plot
[4] = pH 2.58, predicted shelf life at 5° C. from Arrhenius plot
[5] = pH 3.02, predicted shelf life at 5° C. from Arrhenius plot
[6] = pH 3.36, predicted shelf life at 5° C. from Arrhenius plot
[7] = pH 3.90, predicted shelf life at 5° C. from Arrhenius plot

B1: rhNRG-1: proteins or peptides which consist of amino acid sequence of SEQ ID NO: 2 (protein, listed as Homo sapiens)
chain: SHLVKCAEKEKTFCVNGGECFMVKDLSNPSRYLCKCPNEFTGDRCQNYVMASFYKAEELYQ
pH of the best stability, narrow pH study ([1]; pH 2.3 to 4.3): 3.4 (±0.2)
Initial Conc ([1]; pH 2.37 (diluted HCl)): 0.241 mg/mL
% over initial conc. ([1]; pH 2.37, 40° C., 5.7 days): 90%
% over initial conc. ([1]; pH 2.37, 40° C., 7 days): 83%
% over initial conc. ([1]; pH 2.37, 40° C., 11 days): 77%
% over initial conc. ([1]; pH 2.37, 50° C., 5.7 days): 82%
% over initial conc. ([1]; pH 2.37, 50° C., 7 days): 53%
% over initial conc. ([1]; pH 2.37, 50° C., 11 days): 36%
% over initial conc. ([1]; pH 2.37, 60° C., 3.7 days): 55%
% over initial conc. ([1]; pH 2.37, 60° C., 4.7 days): 57%
% over initial conc. ([1]; pH 2.37, 60° C., 5.7 days): 43%
T90 [1, 3]: 166 days
T90 (months) [1, 3]: 6 months
Initial Conc ([1]; pH 2.58 (diluted HCl)): 0.238 mg/mL
% over initial conc. ([1]; pH 2.58, 40° C., 5.7 days): 96%
% over initial conc. ([1]; pH 2.58, 40° C., 7 days): 89%
% over initial conc. ([1]; pH 2.58, 40° C., 11 days): 83%
% over initial conc. ([1]; pH 2.58, 50° C., 5.7 days): 90%
% over initial conc. ([1]; pH 2.58, 50° C., 7 days): 54%
% over initial conc. ([1]; pH 2.58, 50° C., 11 days): 35%
% over initial conc. ([1]; pH 2.58, 60° C., 3.7 days): 62%
% over initial conc. ([1]; pH 2.58, 60° C., 4.7 days): 60%
% over initial conc. ([1]; pH 2.58, 60° C., 5.7 days): 55%
T90 [1, 4]: 317 days
T90 (months) [1, 4]: 11 months
Initial Conc ([1]; pH 3.02 (diluted HCl)): 0.236 mg/mL
% over initial conc. ([1]; pH 3.02, 40° C., 5.7 days): 99%
% over initial conc. ([1]; pH 3.02, 40° C., 7 days): 94%
% over initial conc. ([1]; pH 3.02, 40° C., 11 days): 88%
% over initial conc. ([1]; pH 3.02, 50° C., 5.7 days): 95%
% over initial conc. ([1]; pH 3.02, 50° C., 7 days): 79%
% over initial conc. ([1]; pH 3.02, 50° C., 11 days): 70%
% over initial conc. ([1]; pH 3.02, 60° C., 3.7 days): 70%
% over initial conc. ([1]; pH 3.02, 60° C., 4.7 days): 68%
% over initial conc. ([1]; pH 3.02, 60° C., 5.7 days): 0%
T90 [1, 5]: 612 days
T90 (months) [1, 5]: 20 months
Initial Conc ([1]; pH 3.36 (diluted HCl)): 0.230 mg/mL
% over initial conc. ([1]; pH 3.36, 40° C., 5.7 days): 101%
% over initial conc. ([1]; pH 3.36, 40° C., 7 days): 97%
% over initial conc. ([1]; pH 3.36, 40° C., 11 days): 90%
% over initial conc. ([1]; pH 3.36, 50° C., 5.7 days): 99%
% over initial conc. ([1]; pH 3.36, 50° C., 7 days): 85%
% over initial conc. ([1]; pH 3.36, 50° C., 11 days): 76%
% over initial conc. ([1]; pH 3.36, 60° C., 3.7 days): 77%
% over initial conc. ([1]; pH 3.36, 60° C., 4.7 days): 69%
% over initial conc. ([1]; pH 3.36, 60° C., 5.7 days): 63%
T90 [1, 6]: 1092 days
T90 (months) [1, 6]: 36 months
Initial Conc ([1]; pH 3.90 (diluted HCl)): 0.230 mg/mL
% over initial conc. ([1]; pH 3.90, 40° C., 5.7 days): 101%
% over initial conc. ([1]; pH 3.90, 40° C., 7 days): 96%
% over initial conc. ([1]; pH 3.90, 40° C., 11 days): 88%
% over initial conc. ([1]; pH 3.90, 50° C., 5.7 days): 102%
% over initial conc. ([1]; pH 3.90, 50° C., 7 days): 88%
% over initial conc. ([1]; pH 3.90, 50° C., 11 days): 79%
% over initial conc. ([1]; pH 3.90, 60° C., 3.7 days): 83%
% over initial conc. ([1]; pH 3.90, 60° C., 4.7 days): 81%
% over initial conc. ([1]; pH 3.90, 60° C., 5.7 days): 73%
T90 [1, 7]: 239 days
T90 (months) [1, 7]: 8 months
Initial Conc ([1]; pH 4.29 (diluted HCl)): 0.235 mg/mL
% over initial conc. ([1]; pH 4.29, 50° C., 5.7 days): 100%
% over initial conc. ([1]; pH 4.29, 50° C., 11 days): 78%
% over initial conc. ([1]; pH 4.29, 60° C., 3.7 days): 80%
% over initial conc. ([1]; pH 4.29, 60° C., 5.7 days): 72%
sensitivity to oxidation ([2]; H2O2 exposure): very sensitive to peroxide and prone to oxidation
rhNRG-1 conc. ([2]; Oxidation exposure 0.3 hours): 0.24 mg/mL
rhNRG-1 conc. ([2]; Oxidation exposure 2.4 hours): 0.15 mg/mL
rhNRG-1 conc. ([2]; Oxidation exposure 4.5 hours): 0.10 mg/mL
rhNRG-1 conc. ([2]; Oxidation exposure 7.1 hours): 0.07 mg/mL
